Experimental data as given in IntAct's records for PubMed 15165234.

B1: Nitrogen regulatory protein P-II (Synechococcus elongatus (strain PCC 7942)), P0A3F4 (parent)
chain: MKKIEAIIRPFKLDEVKIALVNAGIVGMTVSEVRGFGRQKGQTERYRGSEYTVEFLQKLKLEIVVEDAQVDTVIDKIVAAARTGEIGDGKIFVSPVDQTIRIRTGEKNADAI
partner: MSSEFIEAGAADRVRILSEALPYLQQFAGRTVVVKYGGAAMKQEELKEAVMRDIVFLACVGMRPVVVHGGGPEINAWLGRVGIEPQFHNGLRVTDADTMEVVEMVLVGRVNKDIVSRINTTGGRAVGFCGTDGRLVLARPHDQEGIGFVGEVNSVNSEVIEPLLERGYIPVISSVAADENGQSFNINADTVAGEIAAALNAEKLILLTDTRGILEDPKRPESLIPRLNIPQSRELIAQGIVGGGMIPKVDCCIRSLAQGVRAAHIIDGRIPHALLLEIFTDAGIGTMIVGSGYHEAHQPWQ

Variants of: B1
Details: with argb_syne7 argB

| Variant | effect of a mutation on the interaction |
| --- | --- |
| S49E | decreasing interaction |
| S49A | decreasing interaction |
